This note sets out measurements from paper PMC6525112, “Vitamin D (1,25(OH)2D3) induces α-1-antitrypsin synthesis by CD4^+ T cells, which is required for 1,25(OH)2D3-driven IL-10” (The Journal of Steroid Biochemistry and Molecular Biology, 2019).

The target of test [1] is T1, NT-647 labelled recombinant α-1-antitrypsin (human, UniProt P01009 25-418, NT-647 label).
T1 construct: alpha-1-antitrypsin, human, recombinant from E. coli (not glycosylated); In the functional row the recombinant protein was used without the label; also called NT-647 labeled AAT; source: E. coli recombinant system, purified in-house
Kind of test: MST; Monolith NT.115, LED 70%, MST power 20%; 0.5 μM NT-647 labelled α-1-antitrypsin incubated 30 min with C3a at 6 nM to 205 μM. To be noted: both partners purified.

The target of test [2] is T2, α-1-antitrypsin (analyte of the SPR assay) (human, UniProt P01009 25-418).
T2 construct: alpha-1-antitrypsin, human; May be the same preparation as m1 or the unlabelled form of m2; also called AAT
Kind of test: SPR; Biacore T200; biotinylated C3a immobilised by amine coupling on CM5 chip (800-1500 RU); serially diluted α-1-antitrypsin injected at 10 μl/minute in Dulbecco's PBS; regeneration 2.0 M KCl; blank surface subtracted. To be noted: both partners purified.

T2 sequence (P01009 25-418): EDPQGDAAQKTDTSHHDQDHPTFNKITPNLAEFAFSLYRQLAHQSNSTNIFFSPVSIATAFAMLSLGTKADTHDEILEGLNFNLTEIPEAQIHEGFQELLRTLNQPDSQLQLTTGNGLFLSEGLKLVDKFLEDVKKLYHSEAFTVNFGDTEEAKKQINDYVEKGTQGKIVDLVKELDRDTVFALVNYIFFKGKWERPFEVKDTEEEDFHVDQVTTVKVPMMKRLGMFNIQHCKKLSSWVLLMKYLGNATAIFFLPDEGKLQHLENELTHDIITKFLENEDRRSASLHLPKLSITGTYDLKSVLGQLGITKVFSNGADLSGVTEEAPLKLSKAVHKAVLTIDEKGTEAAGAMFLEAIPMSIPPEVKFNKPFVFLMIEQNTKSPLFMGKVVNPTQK
T1 sequence (P01009 25-418): as above

B1: C3a (natural protein)
chain: not shown
notes: C3a anaphylatoxin, the cut product of complement C3; also called complement C3a; complement anaphylatoxin C3a; source: bought: Complement Technology, Inc
As to B1, the Kd in test [1] stood at 8.4 µM.

B2: Biotinylated-C3a (natural protein)
chain: not shown
modifications: biotin (biotinamidohexanoic acid 3-sulfo-N-hydroxysuccinimide ester, random, no more than one biotin per molecule of C3a)
notes: C3a anaphylatoxin, the cut product of complement C3; also called randomly biotinylated C3a; complement C3a; source: bought: Complement Technology Inc; biotinylated in-house
As for B2, in test [2], binding was characterised by a dissociation constant (Kd) of 7.53 µM.
